Reference: patent US20240398899A1 (priority 2021, published 2024)
“And” between values parts separate entries of the source, which are not always exact repeats. Equal entries are not always repeated. Where two headings read alike, the source gives them in different places.

Experiments:
SH-SY5Y neuronal cells = assay: Sub (G0/G1) cell population by PI cell cycle assay against MPP+ iodide damage; type: cell-based, human; conditions: MPP + Iodide (2 mM); for % Decrease in Apoptotic cells (wrt MPP + iodide): SubG0/G1
Protocol: After incubation as in Example 2a and 2b, cells were harvested by trypsinization and processed for Cell cycle assay as follows: Cell cycle reagent contains PI stain, which stains DNA of cells in different phases of cell cycle; Sub (G0/G1), G1, S, G2 and M. Cells in Sub (G0/G1) phase correspond to apoptotic cells.
Cells were gently harvested into pre-labelled centrifuge tubes and centrifuged at 450 g for 5 min, RT (low brake). The supernatants were removed carefully and discarded. 1 ml of 1×PBS was added to the pellet and resuspended gently to make homogenous suspension. Cells were centrifuged at 450 g for 5 min, RT (low brake). The supernatant was carefully removed leaving behind approximately 100 μl of PBS. Cells were resuspended gently yet thoroughly in residual PBS. The cells were fixed by adding Ice-cold 70% ethanol (100 μl) added dropwise into cells in each tube while vortexing at low speed Cells were stored at 4° C. for 24 h prior to staining.
Ethanol fixed cells were centrifuged at 450 g for 5 min, RT (low brake) the supernatant was carefully removed (not to touch the pellet) and discarded. 1 ml of 1×PBS was added into pellet and resuspended gently. Cells were incubated for 1 minute at RT. Cells were centrifuged at 450 g for 5 min, RT (low brake). (washing step) The supernatant was removed carefully leaving behind approx. 20 μl-50 μl of PBS. 200 μl of Cell Cycle reagent was added into each tube. Cells were resuspended gently and mixed. Cells were incubated for 30 min, RT, Dark. The stained samples were transferred into 96-well plates and acquired on flow cytometer (Guava technologies). Percentage of cells in Sub (G0/G1) phase were determined.
Percent inhibition in apoptotic cells=[(% Sub(G0/G1)cells in MPP+iodide alone) −(% Sub(G0/G1)cells in SEQ ID NO:1+MPP+iodide)/% Sub(G0/G1)cells in MPP+iodide alone]*100

neuronal cells (pc12) = assay: Neurite formation against MPP+ induced damage; type: cell-based, rat; conditions: NGF (200 ng/ml) + MPP (100 μM)
Protocol: Cells were counted using haemocytometer and plated in 24-well plates at the densities corresponding to 1×10^4 cells/well/500 μl of the growth medium. The cells were then incubated for 48 h in 5% CO2 incubator at 37° C. Effect of Recombinant Lectin having SEQ ID NO: 1 on neurite formation was evaluated in both basal and MPP+ damage induced model.
The percent protection in neurite formation against MPP+ induced damage was determined as follows:
[formula] • Where, • A=No of neurites in Cells treated with NGF+SEQ ID NO: 1+MPP+ • B=No of neurites in Cells treated with NGF+MPP+ • C=No of Neurites Cells treated with NGF alone

Acetylcholinesterase = conditions: mice; for brain Acetylcholine esterase Mean: scopolamine 2.5 mg/kg i.p.
Protocol: Healthy male Swiss albino mice (n=48) were selected and randomized based on body weight (n=8 per Group) into 6 groups as mentioned in table no-1. The control group G1 was treated intravenously with vehicle daily till the experiment completion. Group G2 was considered as negative control and treated with vehicle. […] Group G4, G5 &G6 animals were treated with the test item recombinant lectin protein having SEQ ID NO: 1 at the dose of 0.5 mg/kg, 0.25 mg/kg and 0.125 mg/kg, respectively. All the test items were given intravenously (i.v) daily at the dose volume of 5 ml/kg for 14 Days. The body weight was recorded daily throughout the experimental period. […] One hour after the last dose of test items (on Day 14) all the animals were injected with scopolamine hydrobromide at the dose of 2.5 mg/kg, i.p., except the normal control group G1. Passive avoidance test was conducted 30 min after scopolamine injection.
After passive avoidance test screening models of memory, the animals were sacrificed humanely. The whole brain was carefully removed from the skull and weighed. Brain was dissected into two portions
10% w/v brain homogenate (100 mg/mL) was prepared by homogenizing it in ice-chilled phosphate buffer. The homogenate was subsequently centrifuged using a refrigerated centrifuge at 3000 rpm for 10 min, and the supernatant was separated and used for the biochemical estimations.
Following biomarkers was estimated using ELISA kit as per manufacturer's instruction. • Brain NGF (Nerve Growth Factor), CUSABIO, Catalog No. CSB-E04684m • Acetylcholinesterase, CUSABIO, Catalog No. CSB-E17521m • TNF alpha, CUSABIO, Catalog No. CSB-E04741m

TNF alpha = assay: Brain biomarker ELISA, scopolamine induced dementia; type: in vivo, Mus musculus (Swiss Albino); conditions: scopolamine 2.5 mg/kg i.p., mice

B1: SEQ ID NO: 1: variant of the S. rolfsii lectin amino acid sequence (reported as Rec-2 in WO2010/095143) (protein)
chain: TYKITVRVYQTNPDAFFHPVEKTVWKYANGGTWTITDDQHVLTMGGSGTSGTLRFHADNGESFTATFGVHNYKRWCDIVTNLAADETGMVINQQYYSQKNREEARERQLSNYQVKNAKGRNFQIVYTEAEGNDLHANLIIG
**Q.** With B1 as the molecule, how does the “% Apoptotic cells (SubG0/G1)” value (SH-SY5Y neuronal cells; 0.001 μg/mL) read?
**A.** The value was 2.7%.

**Q.** What about the “% Decrease in Apoptotic cells (wrt MPP + iodide)” value (“% Decrease in Apoptotic cells” below) (SH-SY5Y neuronal cells; 0.001 μg/mL) of the same molecule?
**A.** The value was 18.8%.

**Q.** And the “% Apoptotic cells (SubG0/G1)” value (SH-SY5Y neuronal cells; 0.01 μg/mL)?
**A.** Its value is 2.2%.

**Q.** And the “% Decrease in Apoptotic cells” value (SH-SY5Y neuronal cells; 0.01 μg/mL)?
**A.** Its value is 33.5%.

**Q.** What about the “% Apoptotic cells (SubG0/G1)” value (SH-SY5Y neuronal cells; 0.05 μg/mL) of the same molecule?
**A.** The value was 2.4%.

**Q.** And the “% Decrease in Apoptotic cells” value (SH-SY5Y neuronal cells; 0.05 μg/mL)?
**A.** Its value is 29.9%.

**Q.** What about the “% Apoptotic cells (SubG0/G1)” value (SH-SY5Y neuronal cells; 0.1 μg/mL) of the same molecule?
**A.** Its value is 2.4%.

**Q.** What about the “% Decrease in Apoptotic cells” value (SH-SY5Y neuronal cells; 0.1 μg/mL) of the same molecule?
**A.** The value was 27.7%.

**Q.** And the “% Apoptotic cells (SubG0/G1)” value (SH-SY5Y neuronal cells; 1 μg/mL)?
**A.** Its value is 2.2%.

**Q.** What about the “% Decrease in Apoptotic cells” value (SH-SY5Y neuronal cells; 1 μg/mL) of the same molecule?
**A.** The value was 35%.

**Q.** What about the “% Protection in formation of Neurites (w.r.t. MPP+)” value (shortened to “% Protection in formation”) (neuronal cells (pc12); 0.001 μg/ml) of the same molecule?
**A.** Its value is 7.3%.

**Q.** And the “Average No. of Neurites” value (neuronal cells (pc12); 0.001 μg/ml)?
**A.** The value was 21.

**Q.** What about the “% Protection in formation” value (neuronal cells (pc12); 0.01 μg/ml) of the same molecule?
**A.** Its value is 43.6%.

**Q.** And the “Average No. of Neurites” value (neuronal cells (pc12); 0.01 μg/ml)?
**A.** The value was 28.

**Q.** And the “% Protection in formation” value (neuronal cells (pc12); 0.1 μg/ml)?
**A.** The value was 76.4%.

**Q.** What about the “Average No. of Neurites” value (neuronal cells (pc12); 0.1 μg/ml) of the same molecule?
**A.** The value was 34.

**Q.** What about the “% Protection in formation” value (neuronal cells (pc12); 1 μg/ml) of the same molecule?
**A.** The value was 78.2%.

**Q.** What about the “Average No. of Neurites” value (neuronal cells (pc12); 1 μg/ml) of the same molecule?
**A.** The value was 34.

**Q.** And the “% Protection in formation” value (neuronal cells (pc12); 5 μg/ml)?
**A.** The value was 58.2%.

**Q.** What about the “Average No. of Neurites” value (neuronal cells (pc12); 5 μg/ml) of the same molecule?
**A.** Its value is 30.

**Q.** What about the “effect on scopolamine-increased AChE activity in the brain” value (Acetylcholinesterase; 0.5 mg/kg pretreatment) of the same molecule?
**A.** Its value is “significantly (p<0.001) attenuated”.

**Q.** And the “brain Acetylcholine esterase Mean” value (Acetylcholinesterase; G4: 0.5 mg/kg i.v. qdx14)?
**A.** Its value is 4.47 mU/ml.

**Q.** What about the “brain Acetylcholine esterase Mean” value (Acetylcholinesterase; G5: 0.25 mg/kg i.v. qdx14) of the same molecule?
**A.** Its value is 6.27 mU/ml.

**Q.** And the “brain Acetylcholine esterase Mean” value (Acetylcholinesterase; G6: 0.125 mg/kg i.v. qdx14)?
**A.** Its value is 6.59 mU/ml.

**Q.** What about the “brain TNF-alpha Mean” value (TNF alpha; G4: 0.5 mg/kg i.v. qdx14) of the same molecule?
**A.** The value was 121.7 pg/mL and 121.73 pg/mL.

**Q.** And the “brain TNF-alpha Mean” value (TNF alpha; G5: 0.25 mg/kg i.v. qdx14)?
**A.** The value was 67.65 pg/mL.

**Q.** And the “brain TNF-alpha Mean” value (TNF alpha; G6: 0.125 mg/kg i.v. qdx14)?
**A.** Its value is 79.53 pg/mL.
